Experimental data as given in patent US20160208003A1 (AFFITECH RESEARCH, published 2016).
Residue numbers refer to the chain shown, from its start. Values belong to the binder of their own block, whether it stands above or below them.

Columns and labels:
[1] = target: T1, monkey (Macaca mulatta) CCR4 (monkey (Macaca mulatta), UniProt F7GUA3 1-360); assay: flow cytometry, 10 µg/ml antibody on HEK-293T/17 cells transiently transfected with monkey CCR4, anti-human-IgG-PE
T1 construct: also called monkey CCR4
T1 sequence: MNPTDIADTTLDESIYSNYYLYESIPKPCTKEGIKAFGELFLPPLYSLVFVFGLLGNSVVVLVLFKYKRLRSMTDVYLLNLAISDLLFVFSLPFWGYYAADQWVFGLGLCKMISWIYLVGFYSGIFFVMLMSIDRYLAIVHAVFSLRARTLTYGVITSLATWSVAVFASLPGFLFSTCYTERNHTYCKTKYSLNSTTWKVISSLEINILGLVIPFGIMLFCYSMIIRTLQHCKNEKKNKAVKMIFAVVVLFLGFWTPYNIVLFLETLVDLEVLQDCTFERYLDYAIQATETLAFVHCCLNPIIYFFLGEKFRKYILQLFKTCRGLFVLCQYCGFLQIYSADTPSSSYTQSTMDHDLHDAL
Procedure: (§1) For transient transfection, Hek293T/17 cells were seeded as 2×10^6 cells in a T75 (NUNC) flask. 48 h after seeding, the cells were transfected with Fugene (ROCHE). 40 μl Fugene and 16 μg DNA are used per T75. The cells were used for assays 48 h after transfection.
(§2) HEK-293T/17 cells, were transiently transfected either with pcDNA3.1 plasmid encoding human CCR4 or with pLNO plasmids (Norderhaug et al, 1997) encoding either mouse (GeneBank CAA62372) or monkey (Macaca mulatta) CCR4 (PubMed access number XP_001098807) using Fugene (Roche) as a transfection reagent. Non-transfected (CCR4 negative) cells served as a negative control. The cells were cultivated further for 48 hours under regular conditions described above. The cells were washed twice with PBS, detached from the culture flasks by incubating with Accutase (PAA laboratories, Linz, Austria) for 3 minutes at room temperature. The cells were then washed 2 times with PBS (400×g, 5 min, 4° C.) and resuspended in PBS containing 0.2% BSA and 0.09% NaN₃. 1×10⁵ cells per well were aliquoted into V-shaped 96-well plates (Griner Bio-One, Frikenhausen, Germany). Cells were centrifuged (400×g, 5 min, 4° C.) and resuspended in 50 μl of 10 μg/ml 9E or 9E10J, in PBS containing 0.2% BSA and 0.09% NaN3. The cells were incubated further at 4° C. for 60 min. The samples were then washed twice by centrifugation and re-suspension in 100 μl FACS buffer. […]

mouse CCR4 = target: T2, mouse CCR4 (mouse, UniProt P51680 1-360); assay: flow cytometry on HEK-293T/17 cells transiently transfected with mouse CCR4, anti-human-IgG-PE detection
T2 construct: whole, on cells; also called murine CCR4
T2 sequence (looked up): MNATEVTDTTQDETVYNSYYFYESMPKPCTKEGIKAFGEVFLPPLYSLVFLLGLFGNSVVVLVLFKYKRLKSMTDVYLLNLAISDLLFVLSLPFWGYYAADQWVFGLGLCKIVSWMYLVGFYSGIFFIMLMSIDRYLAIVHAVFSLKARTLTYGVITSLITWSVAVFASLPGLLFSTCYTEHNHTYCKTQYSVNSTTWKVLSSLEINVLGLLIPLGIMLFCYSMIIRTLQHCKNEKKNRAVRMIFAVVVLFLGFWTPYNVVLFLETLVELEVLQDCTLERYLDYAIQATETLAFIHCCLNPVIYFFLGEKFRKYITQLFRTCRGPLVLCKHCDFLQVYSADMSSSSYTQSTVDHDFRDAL
Procedure: as §1, §2

[2] = target: T3, human CC chemokine receptor 4 (CCR4) (human, UniProt P51679 1-360); assay: flow cytometry competition; antibody titrated, competitor biotinylated TARC; cell line not given
T3 construct: whole, on cells; Always presented on cells; also called CD194; human CCR4
T3 sequence (looked up): T1 sequence with I116M, I201L, F215L, D269E, F334L
Procedure: The cells were harvested from culture flasks, washed 2 times with PBS (400×g, 5 min, 4° C.) and resuspended in PBS containing 0.2% BSA and 0.09% NaN3. 1×10^5 cells per well were aliquoted into V-shaped 96-well plates (Greiner Bio-One, Frikenhausen, Germany). Cells were centrifuged (400×g, 5 min, 4° C.) and resuspended in 50 μl IgG, single chain or unlabeled ligand (1:10 dilution series starting on 100/500/26, 4 μg/ml) mixed with a fixed concentration of biotinylated ligand (10 or 20 nM, see legend to FIG. 24). The cells were incubated for 2 hours at 4° C. and mixed with a pipette every 45 min. The cells were washed three times with 150 μl PBS with 0.2% BSA and 0.09% NaN3 and stained with 3 μg/ml streptavidin PE (BD Biosciences) for 45 minutes at 4° C. Cells were washed, resuspended in 200 μl PBS with 0.2% BSA and 0.09% NaN3, and transferred to a U-shaped 96 well Costar (Corning, Schiphol-Rijik, The Netherlands) plate for flow cytometry using an FACS Canto II flow cytometer (BD Biosciences, Heidelberg, Germany). […] Apparent binding affinities (KD) were calculated according to the following equation derived from previously described methods (Kipriyanov et al, 1997b; Schodin & Kranz, 1993): […]

[3] = target: T3, human CC chemokine receptor 4 (CCR4); assay: calculated from the IC50 (KD=IC50/(1+[bio-MDC]/KD MDC)); DT-40-CCR4+ cells, competitor biotinylated MDC
[4] = target: T3, human CC chemokine receptor 4 (CCR4); assay: cell-based or functional assay

binding result [1]: binds | binding result (mouse CCR4): no binding (tested: 10 µg/ml) | IC50 [2]: 2.5 nM | Kd [3]: 0.01 nM
B1: 9E10J IgG (full length human IgG1, lambda) (antibody, V domains shown)
VH: QVQLVQSGAEVKKPGSSVKVSCKASGGTFSSYAISWVRQAPGQGLEWMGGIIPIFGTANYAQKFQGRVTMTRDTSTSTVYMELSSLRSEDTAVYYCARRGGSYFDYWGQGTLVTVSS
VL: SYVLTQPPSASGTPGQSVTISCSGSTSNIGSHYVFWYQQLPGTAPRLLIYRNHQRPSGVPDRLSGSKSGTSASLAISGLRSEDEADYYCAVWDDTLSGWVFGGGTKLTVLG
notes: also called IgG 9E10J; unmodified 9E10J

binding result [1]: binds | binding result (mouse CCR4): no binding (tested: 10 µg/ml) | IC50 [2]: 12.5 nM | ADCC of CCRF-CEM cells with human PBMCs, EC50 [4]: 0.046 µg/mL | Ca++ flux in CCRF-CEM cells: signal response to MDC stimulation (% of MDC in the absence of IgGs), IgG 10 µg/mL [4]: 64% | Ca++ flux in CCRF-CEM cells: signal response to TARC stimulation (% of TARC alone), IgG 10 µg/mL [4]: 3%
B2: 9E IgG (full length human IgG1, lambda) (antibody, V domains shown)
VH: B1 VH with S31N, M70I, R72A, T74E, V79A
VL: B1 VL
notes: also called IgG 9E; IgG1 9E
